The values that follow come from patent US6989144.

The target in test [1] is GPVI on baboon platelets (baboon). As to the kind of experiment: flow cytometry, washed baboon platelets; negative control. In general terms: Flow cytometry measures light scatter and fluorescence of single cells or particles in a stream.
The target of test [2] is soluble human GPVI-Fc (extracellular domain of GPVI fused to Fc; hGPVI-human IgG1Fc) (human) (UniProt Q9HCN6). As to the kind of experiment: 125I-convulxin binding to GPVI-Fc captured on 1P10.2, 10 µg/ml reagent; competitor ligand convulxin.
Chain of soluble human GPVI-Fc (extracellular domain of GPVI fused to Fc; hGPVI-human IgG1Fc) (human) (Q9HCN6 other isoform, or with tags, fused parts or gaps): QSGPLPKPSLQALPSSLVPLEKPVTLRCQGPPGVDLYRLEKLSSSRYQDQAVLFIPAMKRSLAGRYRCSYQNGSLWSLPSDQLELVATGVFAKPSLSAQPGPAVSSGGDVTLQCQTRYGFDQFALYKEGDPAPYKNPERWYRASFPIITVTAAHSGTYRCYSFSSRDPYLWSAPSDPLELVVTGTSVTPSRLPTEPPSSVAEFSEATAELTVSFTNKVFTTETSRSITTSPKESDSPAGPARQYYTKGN
The target in test [3] is GPVI on baboon platelets (baboon). Put plainly: flow cytometry, washed baboon platelets.
A further test deals with collagen type I. As to the kind of experiment: cell-based or functional assay.

As for “monoclonal antibody 7H14.1 (negative control)”, in test [1], the Baboon fluorescence intensity was found to be 9 and the Baboon platelets % positive worked out at 6.8%.

On to “monoclonal antibody 7120.2 (negative control)”, for which, in test [1], the Baboon fluorescence intensity was determined as 10 and the Baboon platelets % positive amounted to 9%.

“mouse monoclonal antibody produced by hybridoma cell line 9012.2”: in test [2], the % blocking of GPVI-Fc binding to convulxin was greater than 25%. In test [3], this substance had a Baboon fluorescence intensity of 18 and a Baboon platelets % positive of 33.8%.

The substance “recombinant human soluble GPVI:Fc (rhusGPVI:Fc) (from UniProt Q9HCN6 21-269) (Fc fusion)” had a collagen-induced platelet aggregation and secretion with collagen type I of 10 fold.
